Test [1] addresses T1, human IL1RAP on cells (KU812, LAMA-84, HEK-Blue IL-33/IL-1β cells) (human, UniProt Q9NPH3 21-570).
T1 sequence (looked up): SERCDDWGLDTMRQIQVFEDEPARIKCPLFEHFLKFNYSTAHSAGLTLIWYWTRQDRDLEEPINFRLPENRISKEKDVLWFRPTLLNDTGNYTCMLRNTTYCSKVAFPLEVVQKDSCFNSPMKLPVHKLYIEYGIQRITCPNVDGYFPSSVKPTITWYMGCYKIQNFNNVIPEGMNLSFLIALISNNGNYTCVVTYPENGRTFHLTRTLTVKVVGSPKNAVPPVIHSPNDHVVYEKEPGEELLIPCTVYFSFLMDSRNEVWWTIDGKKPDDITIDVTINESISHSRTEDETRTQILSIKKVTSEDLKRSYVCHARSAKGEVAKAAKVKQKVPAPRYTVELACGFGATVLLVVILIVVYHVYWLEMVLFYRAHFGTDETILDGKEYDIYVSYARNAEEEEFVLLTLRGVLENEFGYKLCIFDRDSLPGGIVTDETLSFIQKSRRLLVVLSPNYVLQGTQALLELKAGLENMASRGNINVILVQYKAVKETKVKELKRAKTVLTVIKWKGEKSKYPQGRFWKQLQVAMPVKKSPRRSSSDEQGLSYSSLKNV
Kind of test: cell-based or functional assay.

In test [2] the target is T2, IL1RAP protein (analyte of the Biacore study, Example A(i)) (human, UniProt Q9NPH3 21-367, limits assumed).
T2 construct: also called the analyte; human IL1RAP
T2 sequence (looked up): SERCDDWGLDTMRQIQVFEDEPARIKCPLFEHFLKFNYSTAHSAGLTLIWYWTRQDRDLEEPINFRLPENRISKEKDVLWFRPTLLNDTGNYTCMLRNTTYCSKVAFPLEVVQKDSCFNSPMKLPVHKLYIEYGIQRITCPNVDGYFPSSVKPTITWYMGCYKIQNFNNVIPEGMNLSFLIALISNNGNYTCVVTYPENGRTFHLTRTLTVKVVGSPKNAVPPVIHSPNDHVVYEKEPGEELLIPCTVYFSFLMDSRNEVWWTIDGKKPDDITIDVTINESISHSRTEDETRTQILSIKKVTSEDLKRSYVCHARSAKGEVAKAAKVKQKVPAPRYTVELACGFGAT
The test can be described thus: SPR, BIAcore T200, antibody captured by anti-mouse IgG, analyte 100 nM, 25 C. As to the method: Goat anti-mouse IgG was immobilized on a CM5 chip according to the technical manual of capture kit and standard operation principle of BIAcore T200 (Biacore Life Sciences, GE Healthcare Europe GmbH, Uppsala, Sweden).
The capture molecule surface was regenerated after each binding cycle using the manufacturer's recommended conditions.
After five cycles of start-up, each antibody (100 nM) was injected at a flow rate of 30 μl/min, for 120 s, at the start of the cycle; then the analyte (100 nM) was injected at a flow rate of 30 μl/min, for 120 s, followed by monitoring the dissociation phase for 300 s.

The target in test [3] is T1, human IL1RAP on cells (KU812, LAMA-84, …). The test can be described thus: cell-based or functional assay. The source holds these as a separate data set.

Some results are limits rather than exact numbers.

B1: CAN01 (antibody, V domains shown)
VH: QVQLQQSGTELMKPGASVKISCKATGYTVSSYWIDWVKQTPGHGLEWIGEILPGSAINNYNEKFKGKATFTADTSSNTAYMQLSSLTSEDSAVYYCASGDYFDSTFVYYWGQGTTLTVSS
VL: DVLMTQTPLSLPVSLGDQASISCRSSQSIVHSNGNTYLEWYLQKPGQSPKLLIYKVSNRFSGVPDRFSGSGSGTDFTLKISRVEAEDLGVYYCFQGSHVPRTFGGGTKLEIKR
notes: Murine-derived monoclonal anti-IL1RAP antibody; also called CAN01-AF488 (AlexaFluor488-labelled form)
In the case of B1, in test [1], the “EC50, murine IL-1 alpha-stimulated HEK-Blue IL-33/IL-1β cells” value was 84.2 nM; the “EC50, murine IL-1 beta-stimulated HEK-Blue IL-33/IL-1β cells” value is above 100 nM; the “EC50, murine IL-33-stimulated HEK-Blue IL-33/IL-1β cells” value is above 100 nM; the “IC50, murine IL-1 alpha-stimulated HEK-Blue IL-33/IL-1β cells” value came out at 81.7 nM. In test [1], the “IC50, murine IL-1 beta-stimulated HEK-Blue IL-33/IL-1β cells” value was determined as 50 nM and the “IC50, murine IL-33-stimulated HEK-Blue IL-33/IL-1β cells” value is above 100 nM. In test [2], this molecule had a Kd of 1.43 nM, an off-rate constant (koff) of 0.000335 s⁻¹ and a kon of 234000 M⁻¹ s⁻¹.

B2: CAN03 (antibody, V domains shown)
VH: DVKLVESGGGLVKPGGSLKLSCAASGFTFSIYTMSWVRQTPEKRLEWVATISIGGSYINYPDSVKGRFTISRDNAKNTLYLQMSSLKSEDTAIYYCSREVDGSYAMDYWGQGTSVTVSS
VL: DILLTQSPAILSVSPGERVSFSCRASQSIGTSIHWYQRRTNGSPRLLIKSASESISGIPSRFSGSGSGTDFTLSINSVESEDIADYYCQQSNSWPTTFGAGTKLELKR
notes: Murine-derived monoclonal anti-IL1RAP antibody; also called CAN03-AF488 (AlexaFluor488-labelled form)
With B2, in test [3], the “EC50, human IL-1α-stimulated HEK-Blue IL-33/IL-1β cells” value is 37.6 nM; the “EC50, human IL-1β-stimulated HEK-Blue IL-33/IL-1β cells” value is 10.5 nM; the “EC50, human IL-33-stimulated HEK-Blue IL-33/IL-1β cells” value came to 30.5 nM; the “IC50, human IL-1α-stimulated HEK-Blue IL-33/IL-1β cells” value was determined as 37.3 nM. Also, in test [3], the “IC50, human IL-1β-stimulated HEK-Blue IL-33/IL-1β cells” value came to 10.1 nM and the “IC50, human IL-33-stimulated HEK-Blue IL-33/IL-1β cells” value turned out to be 30.4 nM. Besides, in test [1], the “EC50, murine IL-1 alpha-stimulated HEK-Blue IL-33/IL-1β cells” value was 2.9 nM; the “EC50, murine IL-1 beta-stimulated HEK-Blue IL-33/IL-1β cells” value was 1.56 nM; the “EC50, murine IL-33-stimulated HEK-Blue IL-33/IL-1β cells” value stood at 4.01 nM; the “IC50, murine IL-1 alpha-stimulated HEK-Blue IL-33/IL-1β cells” value was determined as 5 nM. Also, in test [1], the “IC50, murine IL-1 beta-stimulated HEK-Blue IL-33/IL-1β cells” value was 1.59 nM and the “IC50, murine IL-33-stimulated HEK-Blue IL-33/IL-1β cells” value is 4.12 nM. In test [2], this molecule yielded a Kd of 0.321 nM, a koff of 7.25e-05 s⁻¹ and an on-rate (kon) of 226000 M⁻¹ s⁻¹.

The Kd is the free concentration of one partner at which half of the binding sites on the other are occupied at equilibrium, for simple one-to-one binding. A word on the koff: it is the rate constant with which the complex falls apart. A high value points to fast dissociation. As a reminder, the kon is a measure of how fast the partners come together. A low value points to slow association.
